The DeepSol protein solubility set

assay: soluble on expression in E. coli; label from the status in PepcDB or PDB records

Sequence | soluble on expression in E. coli
MSLDKIKAVIFDMDGVLIDAKEWHYEALNKALRLFGFEISRYDHLVTFDGLPTAKKLEMMTVERGLPKSLHQLINDMKQIYTMEYVYMKCKPLFVHQYALSRLKSEGFRLALASNSVRVTIDMMMEKADLNQYLDFSLSNQDVKKSKPDPEIYITAINRLGLSPEECLVVEDNQNGVKAALASGANLLKVETINDVTYSNIINRINEIENNIEGHHHHHH | soluble
MRKSLVALLLLAASGLAQAQVDLREGHPDRYTVVRGDTLWDISGKFLRQPWKWPELWHANPQIQNPHLIYPGDTLSLVYVDGQPRLVLNRGESRGTIKLSPKIRSTPIAEAIPTIPLDKINSFLLANRIVDDEKTFTSAPYIVAGNAERIVSGTGDRIYARGKFADGQPAYGIFRQGKVYIDPKTKEVLGINADDIGGGEVVATEGDVATLALTRTTQEVRLGDRLFPTEERAVNSTFMPGEPSREVKGEIIDVPRGVTQIGQFDVVTLNRGQRDGLAEGNVLAIYKVGETVRDRVTGESVKIPDERAGLLMVFRTYKKLSYALVLMASRPLSVTDRVQNP | not soluble
MAGWRTVVVNTHSKLSYKNNHLIFKDAYKTELIHLSEIDILLLETTDIVLSTMLVKRLVDENVLVIFCDDKRLPTAMLMPFYGRHDSSLQLGKQMSWSETVKSQVWTTIIAQKILNQSCYLGACSYFEKSQSIMDLYHGLENFDPSNREGHAARIYFNTLFGNDFSRDLEHPINAGLDYGYTLLLSMFAREVVVSGCMTQFGLKHANQFNQFNFASDIMEPFRPLVDKIVYENRNQPFPKIKRELFTLFSDTFSYNGKEMYLTNIISDYTKKVVKALNNEGKGVPEFRI | not soluble
MLSGVGAPVGKQMLAGTEVAAMQINKAGGLLGREVELVIRDDKYNSSESVAVARELAGDGINLLLGGSQTVTALGLAPLAPELNMAVMIVAAAGMPVTHELFNPNIFRATANNYTQYSSLGRVLIEQNPDVRTWVSLAPDGDFGRDSALFFGKAVEKYAPGEKPTVLDTIYTQATATDFRTQINQLMSSDAEGLYIGIAASAQISFFQQARSVGLYDKFKAIGEVGNGDITGKAMGRNTHPNLWSVCHWIYNAEPFASNPVSKQLYEDYVTLKGDEMPSAQVAAGHRAAMAIFEGIRAAGSTETEAVLAAIEDVEFETVGGPVSFRKEDHQLVNTNYYSQMGPSREEPFFAFNKVVSIDAAEMIEPATPGKAFDISELPQLEHHHHHH | not soluble
VALTVYYPPRVVSLEEPELRLEHCIEFVVRGNPPPTLHWLHNGQPLRESKIIHVEYYQEGEISEGCLLFNKPTHYNNGNYTLIAKNPLGTANQTINGHFLKEPFPVDEVSPTPPITVT | soluble
MSLADPDGGERSRRAARAASLSSSSRPTSVSAKQPCRVKFICRVLRPVVQGFLTSLGYRAAIGRAPSARQLRDYLLVPEVTRLHAENYGFYGRRKMHALMRRQGWVIGRDQTERLMRLAGVRGVRKSKRVLTTHSDKTTVLPADLVNRRFTAPAPRRLWVCDVTYVATWSGFAYVAFVTDVYSRRIVGWNVAATLRSEILPMQALDMAAWGAGGDLTSLIHHADHGSNSEGHHHHHH | soluble
MNRMKTKQIDRHLAKFAYSEEFVGDTKRSTAAYTSVREDASIGSTHKLPLEVEEFGKMSNTVILGCGLSGMLTALSFAQKGIKTTIFESKSVKSPEFFKDIRTTALTPHSKNFLFSIDIWEELEKFVAEMQDIYVVDNQASEILDLRNDADAVLGYVVKNSDFKKMLLSKITNNPLITLIDNNQYQEVISHNDYSIIKFDDNQIKCNLLIICDGANSKVRSHYFANEIEKPYQTALTFNIKHEKPHENCAMEHFLPFGPFALLPLKDQYASSVIWSTSSDQAALIVNLPVEEVRFLTQRNAGNSLGKITIDSEISSFPLKARIANRYFHNRIVLIADTAHTVHPLAGQGLNQGIKDIEILSMIVSNNGPLQEYQKLRQEDNFIMYKLTDELNNIFSNHSKNLRCLRQIGFKVINNFKPVKNLITSYAMGKR | not soluble
LTSSNALRGDAHSRLAAHRGLLERTSRTTRVAGILRDAIIDGTFRPGARLSEPDICAALDVSRNTVREAFQILIEDRLVAHELNRGVFVRVPTAEDITELYICRRVVECAGVNGFDPATGDLSRVAEALDLADERYAVEDWTGVGTADIHFHSALASLNNSNRIDELMRSVWNEARLVFHVMDDAHRFHGPYLTRNHEIYDALAAGNTEAAGQLLKTYLEDAEAQILGAYRPVSG | soluble
MKKTIISTLVIGLVSGCSNTNLLKDNLASEQSVINLSKSSNEAKSRNIEFLSGAYLSERKVPKHDIKFSGKYVEFESKSPIELIDVLDGLSKQYNIQYVFSDELEDENSEENKKSSGSSSAKKIKYSGPLAGFFDYLSSAYNMHFEFGHNNLVKAYHYKNQVFNLQQYFDDNKFSSSMQIGGTSGTSSGLKGTADTAIESNSWEKIDEFLSASLGETGKFTIFEDYSLVTVKARPDKFLLLHTFFDKLINESKMQIAVDYRVVSLSEERLNQLAAKFGIENAGKYSITSDMVDAISLSQVGGGLGASYRSASARLDAVVNELSQEVMHEGHFIGIPNRVMPLNVTTNSKYISSIETTKDTNTDEETRTVKVSDLVTGFSMMVMPKILDDGRIQISSGFSRKQLVSIGTAQGITLPTVDENESMNTVTMNPGEVRLAMLFKDNYIQNSNGVQLLGGGTENKKSARYIAVLVGASSYKTNDLASNRVNIYD | not soluble
MGSDKIHHHHHHMDYYAGIDVSLELSSVCIVNQDGKIFREVKVASDPEALIGLFGGLGVALSRIGLEAGPLSQWLHAGLTAGGYDVVLLETRHVKAGLSAMTVKTDRKDARGIAHLLRMGWFRPVHCKTNSAQEIRVLLVGRKLLQSKMGDLEQGIRGLLRGFGLKVGVISKGRFAARIRELVAGQAMLETVAEPMLRARDALRAEFTLLHRQILAIVRKDDLCRRLMTVPGVGPLVALTFKSGIDDPSRFTSSKTVGAHFGLTPKKYQSGETDITGGITRTGDAMVRMALYEAAQVLLTRSQRFSSLKRWALEVAKRRGMKRAKVALARKLATVLHRMWIDGSDFRWGKEITSA | not soluble
MSRLEIYSPEGLRLDGRRWNELRRFESSINTHPHAADGSSYMEQGNNKIITLVKGPKEPRLKSQMDTSKALLNVSVNINKFSKFERSKSSHKNERRVLEIQTSLVRMFEKNVMLNIYPRTVIDIEIHVLEQDGGIMGSLINGITLALIDAGISMFDYISGISVGLYDTTPLLDTNSLEENAMSTVTLGVVGKSEKLSLLLVEDKIPLDRLENVLAIGIAGAHRVRDLMDEELRKHAQKRVSNASAR | soluble
MANSMIFKAEGNQLIAERVFDAPRELVFKMFTEAEHLKNWWGPRGWDLTVCNIDFRPGGSWHFCMKCVDENQGDFYGYESWGKALYREIVDGEKIVYVDYFSDSEGNLSEEMPAAEITLTFIDLGGKTKIVNQVEYPSAEELQKGLDMGMEQGFTETWDRLVEYLQDIQLEHHHHHH | not soluble
MSNLEIKQGENKFYIGDDENHALAEITYRFVDNNEINIDHTGVSDELGGQGVGKKLVKAVVEHARENHLKIIASCSFAKHMLEKEDSYQDVYLG | soluble
LLFLSRERGPSQSTPSLISSAAPTMIKMEVNGHGKAMALGEGPPLPAGVQVPAGPQTVMGPGLAPMLAPPPRRTPKQHNCQSCGKTFSSASALQIHERTHTGEKPFGCTICGRAFTTKGNLKVHMGTHMWNNAPARRG | soluble
TTFFGRETAFFNGTEKLGRKFSLPVVYMDVEKTGHDVFTGTIKLLHHPQDDSPEGSITEEYVRLMETTIRRDPSQWLWSHRRWKRPRLHNTRQL | not soluble
SKELKVLVLCAGSGTSAQLANAINEGANLTEVRVIANSGAYGAHYDIMGVYDLIILAPQVRSYYREMKVDAERLGIQIVATRGMEYIHLTKSPSKALQFVLEHYQ | not soluble
MSSPDSAAHQFSICRVCDDSNGQPHYGTICCPSCKGFFRRVYMSDKKFECYRGNMCVIQKGTRNICRACRYKKCLQVGMNVKGSTTRHNLRINIYVQTSAESTPKSSKDTEMGVAEAMEMAQVYMNLEKYCENNYCESNMCREEENRLIDRMLSSTVHELIQKTSPQCPRFKRDWKPLEMLNLENFCRSWSRSIVHFLDFATRFPVFNQLSHIDKRAWFISRLAPCSFLTMAYQTRIEMCEGLLFGCSNVFPLKSDRWIAVETEHLRGLFSSITETMFSFVIYPMMNLKITDLHYSLLKACVFFSAGIVVTSVSDKGMEIMRNEYTKHKNALMKLLMNGVERFSQQTDILFQIQDVQNTLEHHKHLKSQQI | soluble
SVLQVLHIPDERLRKVAKPVEEVNAEIQRIVDDMFETMYAEEGIGLAATQVDIHQRIIVIDVSENRDERLVLINPELLEKSGETGIEEGCLSIPEQRALVPRAEKVKIRALDRDGKPFELEADGLLAICIQHEMDHLVGKLFMDYLSPLKQQRIRQKVEKLDRLKARAPNSSSVDKLAAALEHHHHHH | soluble
MAVTVDDIKLSLRIDVTEDDPMIKSYLDAAKDYVQTAVSKNEDLTIYKQYDFAVSLLTQFWYQNRVTDMTKTPYQVVSMIQQLRGLVAG | not soluble
MATQMRLTDTNLLEVLNSEEYSGVLKEFREQRYSKKAILYTPNTERNLVFLVKSGRVRVYLAYEDKEFTLAILEAGDIFCTHTRAFIQAMEDTTILYTDIRNFQNIVVEFPAFSLNMVKVLGDLLKLLLTIINGLVFKDARLRLAEFLVQAAMDTGLKVPQGIKLELGLNTEEIALMLGTTRQTVSVLLNDFKKMGILERVNQRTLLLKDLQKLKEFSSGV | soluble
IKVILITGMPGSGKSEFAKLLKERGAKVIVMSDVVRKRYSIEAKPGERLMDFAKRLREIYGDGVVARLCVEELGTSNHDLVVFDGVRSLAEVEEFKRLLGDSVYIVAVHSPPKIRYKRMIERLRSDDSKEISELIRRDREELKLGIGEVIAMADYIITNDSNYEEFKRRCEEVTDRVLK | soluble
MGSDKIHHHHHHMISMKEEIKKVIEETGLPIITDEKSGAAQWVDLRELRLSYIISVENIKPFYEGLKEGKLLGTKCKKCGRLFFPPQKDCPSCFDSDIEWVELKNEGTLETMTVVFVRPPSFSAYDPYPVAIAKLDDGPRILAWYKGDPQQAKPGMRVKIQVGKRKEGYLMYEIAPA | not soluble
MAHHHHHHMGVGFQSKKLQNFCHSGAGEMCALENCIPRWGSFPCNAPGLTPVYELSSFENVELPLIFQKSNIGDLLASTSDSVGQLNGFQARHSNTEGIKSQVSYTSVALSTTNRENLFGWVDCAALPLCSSSTAGASILLVTLLTRESRGKSCMCILDDLVCQLSNGPFNWGCGGDCHDLISISLPSEPRNHAACPIILPIAKLSRKEIWLREAAPKMDVETIIYEGDNQQHLVDDVANGTNAGSCAVMEAGCRPETALGPENVKYGDNESVTQCEVTVDITPSTEPSARCLHFSECTTPVSSNRSFMEPIPLSNMESKALRCRKFDGTSYEVLRRRAHSDALSLILKKYSEHF | not soluble
AIAPGRKRKLAAKTAELAPEAGEGSESTSLVGSADASASTAAGVAHTEQQEMPSGGLHESFLESIPPAASFLEELAWVESLASPSYVAYLCQMRRFDDVVAQRRLTTLQRWRQDPAYRQHVSQPIALFFLEQLCSAEFREALRHPAVAALYERQVDLYRRCYGNLLNTGESRVLR | soluble
MGSDKIHHHHHHAENNDDCFRGVPLQVKLPAGILSETMQDINIYVFDGSDRLLDILPIRSLEPVILSYPGIPSLHCIAWGNTQDGTMYVSPLKTGDPLSAGFISLKPSAVTRAQKSIFISPTDLFYGELNVDNTSTSNRIEEKEMSVSRMVASMNITIRGLELLSQSNEGVYSIVVHETASRVDFEGRYGGDPASYAFSPRFEAGKDYIIPPFNLFPTTVGSGISIDIYRNGSLLRSISTDSGNQPILPVVGKTLNVLLNFRLDVDVELALTGWGEEYIWKEYN | not soluble
